Values of other authors as cited in patent US6552168B1, “Gamma-ketoacid tetrapeptides as inhibitors of caspase-3” (Merck Frosst Canada & Co., priority 1998, dated 2003).

Legend:
caspase-3 = target: T1, caspase-3 (Homo sapiens, UniProt P42574)
T1 sequence (P42574 29-175 limits assumed): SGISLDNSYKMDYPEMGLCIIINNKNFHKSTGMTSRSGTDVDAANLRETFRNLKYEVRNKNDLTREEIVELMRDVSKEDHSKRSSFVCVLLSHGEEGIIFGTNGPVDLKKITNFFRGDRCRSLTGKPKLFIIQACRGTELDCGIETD
T1 sequence (P42574 176-277 limits assumed): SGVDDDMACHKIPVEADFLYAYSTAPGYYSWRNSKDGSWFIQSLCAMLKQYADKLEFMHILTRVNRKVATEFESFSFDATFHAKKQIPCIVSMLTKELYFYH

caspase-1 = target: T2, caspase-1 (Homo sapiens, UniProt P29466)
T2 sequence (P29466 120-297 limits assumed): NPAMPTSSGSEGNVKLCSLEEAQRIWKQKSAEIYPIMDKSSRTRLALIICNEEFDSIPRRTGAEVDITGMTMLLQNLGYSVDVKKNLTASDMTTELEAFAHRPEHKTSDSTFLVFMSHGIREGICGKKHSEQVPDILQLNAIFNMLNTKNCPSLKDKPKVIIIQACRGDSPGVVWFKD
T2 sequence (P29466 317-404 limits assumed): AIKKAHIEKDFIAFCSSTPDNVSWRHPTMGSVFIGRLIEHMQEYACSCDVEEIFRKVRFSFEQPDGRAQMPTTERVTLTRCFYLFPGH

For Ac-YVAD-CHO, the Ki (caspase-3) is listed as 12 µM, the Ki (caspase-1) is listed as < 0.001 µM and the “kon caspase-1” value (caspase-1; slow-binding time-dependent inhibition) is listed as 380000 M⁻¹ s⁻¹.
